From US20260242735A1 (UNIVERSIT T BASEL, published 2026)

How the values were obtained:
Experiment in all cases: flow cytometry, HEK293-T, alanine scan;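 also: transiently transfected HEK293-T cells expressing single alanine mutants of human CD33 (alanine residues changed to serine), antibody binding fluorescence minus background, relative to wild type CD33, mean of duplicates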
[1] = target: human CD33 L275A (human, UniProt P20138 18-364)
Procedure: (§1) An alanine scan on human CD33 was performed to the determine the residues on CD33 that are involved in binding to the antibodies investigated. […] Briefly, a mutation library of CD33 was created by high-throughput, site-directed mutagenesis. Each residue was individually mutated to alanine, with alanine codons mutated to serine. The mutant library was arrayed in 384-well microplates and transiently transfected into HEK293-T. Following transfection, cells were incubated with the indicated antibodies (IgG or Fab) at concentrations pre-determined using an independent immunofluorescence titration curve on wild type CD33. […] Binding of each antibody to each mutant clone was determined in duplicates. For each point, background fluorescence was subtracted from the raw data, which were then normalized to antibody reactivity with wild type CD33.
(§2) Critical residues for antibody binding (outlined in dark grey) were residues whose mutations led to a binding of the test Abs of less than 20%. Additional secondary residues (outlined in light grey) were identified that led to a binding of the test Abs of between 20 and 40% as compared to the wild type CD33.

[2] = target: human CD33 C276A (human, UniProt P20138 18-364)
Procedure: as §1, §2

[3] = target: human CD33 L277A (human, UniProt P20138 18-364)
Procedure: as §1, §2

[4] = target: human CD33 I278A (human, UniProt P20138 18-364)
Procedure: as §1, §2

[5] = target: human CD33 I281A (human, UniProt P20138 18-364)
Procedure: as §1, §2

[6] = target: human CD33 K283A (human, UniProt P20138 18-364)
Procedure: as §1, §2

[7] = target: human CD33 R287A (human, UniProt P20138 18-364)
Procedure: as §1, §2

[8] = target: human CD33 A289S (human, UniProt P20138 18-364)
Procedure: as §1, §2

[9] = target: human CD33 A290S (human, UniProt P20138 18-364)
Procedure: as §1, §2

[10] = target: human CD33 R291A (human, UniProt P20138 18-364)
Procedure: as §1, §2

[11] = target: human CD33 T292A (human, UniProt P20138 18-364)
Procedure: as §1, §2

[12] = target: human CD33 G295A (human, UniProt P20138 18-364)
Procedure: as §1, §2

[13] = target: human CD33 N297A (human, UniProt P20138 18-364)
Procedure: as §1, §2

[14] = target: human CD33 P301A (human, UniProt P20138 18-364)
Procedure: as §1, §2

[15] = target: human CD33 T303A (human, UniProt P20138 18-364)
Procedure: as §1, §2

[16] = target: human CD33 A306S (human, UniProt P20138 18-364)
Procedure: as §1, §2

[17] = target: human CD33 P308A (human, UniProt P20138 18-364)
Procedure: as §1, §2

[18] = target: human CD33 K309A (human, UniProt P20138 18-364)
Procedure: as §1, §2

[19] = target: human CD33 Q311A (human, UniProt P20138 18-364)
Procedure: as §1, §2

[20] = target: human CD33 K313A (human, UniProt P20138 18-364)
Procedure: as §1, §2

[21] = target: human CD33 K315A (human, UniProt P20138 18-364)
Procedure: as §1, §2

[22] = target: human CD33 G318A (human, UniProt P20138 18-364)
Procedure: as §1, §2

[23] = target: human CD33 L271A (human, UniProt P20138 18-364)
Procedure: as §1, §2

[24] = target: human CD33 C325A (human, UniProt P20138 18-364)
Procedure: as §1, §2

[25] = target: human CD33 G327A (human, UniProt P20138 18-364)
Procedure: as §1, §2

[26] = target: human CD33 P330A (human, UniProt P20138 18-364)
Procedure: as §1, §2

[27] = target: human CD33 V332A (human, UniProt P20138 18-364)
Procedure: as §1, §2

[28] = target: human CD33 E333A (human, UniProt P20138 18-364)
Procedure: as §1, §2

[29] = target: human CD33 D335A (human, UniProt P20138 18-364)
Procedure: as §1, §2

[30] = target: human CD33 E336A (human, UniProt P20138 18-364)
Procedure: as §1, §2

[31] = target: human CD33 E337A (human, UniProt P20138 18-364)
Procedure: as §1, §2

[32] = target: human CD33 L338A (human, UniProt P20138 18-364)
Procedure: as §1, §2

[33] = target: human CD33 Y340A (human, UniProt P20138 18-364)
Procedure: as §1, §2

[34] = target: human CD33 A341S (human, UniProt P20138 18-364)
Procedure: as §1, §2

[35] = target: human CD33 S342A (human, UniProt P20138 18-364)
Procedure: as §1, §2

[36] = target: human CD33 N344A (human, UniProt P20138 18-364)
Procedure: as §1, §2

Sequence of human CD33 I278A (P20138 18-364 I278A limits assumed): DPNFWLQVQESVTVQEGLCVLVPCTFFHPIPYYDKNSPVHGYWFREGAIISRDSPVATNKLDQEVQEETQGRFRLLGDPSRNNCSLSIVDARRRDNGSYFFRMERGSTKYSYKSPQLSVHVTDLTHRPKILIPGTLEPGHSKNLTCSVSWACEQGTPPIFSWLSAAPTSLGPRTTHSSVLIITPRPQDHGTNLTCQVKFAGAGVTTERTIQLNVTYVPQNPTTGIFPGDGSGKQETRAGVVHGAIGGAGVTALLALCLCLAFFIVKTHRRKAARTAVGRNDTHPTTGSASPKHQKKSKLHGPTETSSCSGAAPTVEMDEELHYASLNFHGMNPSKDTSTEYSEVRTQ
Sequence of human CD33 K315A (P20138 18-364 K315A limits assumed): as the sequence (P20138 18-364 I278A limits assumed) above, with A261I, K298A counted along it
Sequence of human CD33 S342A (P20138 18-364 S342A limits assumed): as the sequence (P20138 18-364 I278A limits assumed) above, with A261I, S325A counted along it
Sequence of human CD33 K283A (P20138 18-364 K283A limits assumed): as the sequence (P20138 18-364 I278A limits assumed) above, with A261I, K266A counted along it
Sequence of human CD33 L271A (P20138 18-364 L271A limits assumed): as the sequence (P20138 18-364 I278A limits assumed) above, with L254A, A261I counted along it
Sequence of human CD33 A341S (P20138 18-364 A341S limits assumed): as the sequence (P20138 18-364 I278A limits assumed) above, with A261I, A324S counted along it
Sequence of human CD33 R291A (P20138 18-364 R291A limits assumed): as the sequence (P20138 18-364 I278A limits assumed) above, with A261I, R274A counted along it
Sequence of human CD33 A289S (P20138 18-364 A289S limits assumed): as the sequence (P20138 18-364 I278A limits assumed) above, with A261I, A272S counted along it
Sequence of human CD33 L277A (P20138 18-364 L277A limits assumed): as the sequence (P20138 18-364 I278A limits assumed) above, with L260A, A261I counted along it
Sequence of human CD33 T303A (P20138 18-364 T303A limits assumed): as the sequence (P20138 18-364 I278A limits assumed) above, with A261I, T286A counted along it
Sequence of human CD33 C276A (P20138 18-364 C276A limits assumed): as the sequence (P20138 18-364 I278A limits assumed) above, with C259A, A261I counted along it
Sequence of human CD33 P308A (P20138 18-364 P308A limits assumed): as the sequence (P20138 18-364 I278A limits assumed) above, with A261I, P291A counted along it
Sequence of human CD33 G295A (P20138 18-364 G295A limits assumed): as the sequence (P20138 18-364 I278A limits assumed) above, with A261I, G278A counted along it
Sequence of human CD33 Y340A (P20138 18-364 Y340A limits assumed): as the sequence (P20138 18-364 I278A limits assumed) above, with A261I, Y323A counted along it

Binder	Mean % WT Binding [1]	Mean % WT Binding [2]	Mean % WT Binding [3]	Mean % WT Binding [4]	Mean % WT Binding [5]	Mean % WT Binding [6]	Mean % WT Binding [7]	Mean % WT Binding [8]	Mean % WT Binding [9]	Mean % WT Binding [10]	Mean % WT Binding [11]	Mean % WT Binding [12]	Mean % WT Binding [13]	Mean % WT Binding [14]	Mean % WT Binding [15]	Mean % WT Binding [16]	Mean % WT Binding [17]	Mean % WT Binding [18]	Mean % WT Binding [19]	Mean % WT Binding [20]	further results
Refmab #5 (antibody, V domains shown, The alanine scan used IgG or Fab) VH: QVQLVQSGAEVKKPGASVKVSCKASGYTFTNYDINWVRQAPGQGLEWIGWIYPGDGSTKYNEKFKAKATLTADTSTSTAYMELRSLRSDDTAVYYCASGYEDAMDYWGQGTTVTVSS VL: DIQMTQSPSSLSASVGDRVTINCKASQDINSYLSWFQQKPGKAPKTLIYRANRLVDGVPSRFSGSGSGQDYTLTISSLQPEDFATYYCLQYDEFPLTFGGGTKVEIK	86.4 % WT binding	95.4 % WT binding	89 % WT binding	100 % WT binding	115 % WT binding	82.9 % WT binding	97.1 % WT binding	91.8 % WT binding	118 % WT binding	103 % WT binding	85.1 % WT binding	101 % WT binding	83.7 % WT binding	90.1 % WT binding	82.4 % WT binding	88.5 % WT binding	73.5 % WT binding	85.7 % WT binding	126 % WT binding	118 % WT binding	Mean % WT Binding [21]: 112 % WT binding; Mean % WT Binding [22]: 87.1 % WT binding; Mean % WT Binding [23]: 84.9 % WT binding; Mean % WT Binding [24]: 107 % WT binding; Mean % WT Binding [25]: 98.7 % WT binding; Mean % WT Binding [26]: 90.3 % WT binding; Mean % WT Binding [27]: 71.6 % WT binding; Mean % WT Binding [28]: 121 % WT binding; Mean % WT Binding [29]: 86.2 % WT binding; Mean % WT Binding [30]: 90.5 % WT binding; Mean % WT Binding [31]: 114 % WT binding; Mean % WT Binding [32]: 105 % WT binding; Mean % WT Binding [33]: 88.6 % WT binding; Mean % WT Binding [34]: 113 % WT binding; Mean % WT Binding [35]: 101 % WT binding; Mean % WT Binding [36]: 87.9 % WT binding
Refmab #6 (antibody, V domains shown, The alanine scan used IgG or Fab) VH: QVQLQQPGAEVVKPGASVKMSCKASGYTFTSYYIHWIKQTPGQGLEWVGVIYPGNDDISYNQKFQGKATLTADKSSTTAYMQLSSLTSEDSAVYYCAREVRLRYFDVWGQGTTVTVSS VL: EIVLTQSPGSLAVSPGERVTMSCKSSQSVFFSSSQKNYLAWYQQIPGQSPRLLIYWASTRESGVPDRFTGSGSGTDFTLTISSVQPEDLAIYYCHQYLSSRTFGQGTKLEIK	94.6 % WT binding	100 % WT binding	104 % WT binding	108 % WT binding	104 % WT binding	88.6 % WT binding	71.5 % WT binding	96 % WT binding	108 % WT binding	104 % WT binding	113 % WT binding	92.1 % WT binding	95.6 % WT binding	105 % WT binding	95.5 % WT binding	99.2 % WT binding	103 % WT binding	98.8 % WT binding	88.7 % WT binding	102 % WT binding	Mean % WT Binding [21]: 99.2 % WT binding; Mean % WT Binding [22]: 89.1 % WT binding; Mean % WT Binding [23]: 106 % WT binding; Mean % WT Binding [24]: 111 % WT binding; Mean % WT Binding [25]: 92.1 % WT binding; Mean % WT Binding [26]: 97.9 % WT binding; Mean % WT Binding [27]: 100 % WT binding; Mean % WT Binding [28]: 98.7 % WT binding; Mean % WT Binding [29]: 98.2 % WT binding; Mean % WT Binding [30]: 102 % WT binding; Mean % WT Binding [31]: 105 % WT binding; Mean % WT Binding [32]: 103 % WT binding; Mean % WT Binding [33]: 101 % WT binding; Mean % WT Binding [34]: 89.6 % WT binding; Mean % WT Binding [35]: 102 % WT binding; Mean % WT Binding [36]: 67.7 % WT binding
